Laboratory results published in the supplement of paper PMC11316812.
± gives the standard deviation of the averaged measurements.

Tests used:
hTERT-HMEC = assay: percentage of EdU-negative (G0-arrested) nuclei per well, 72 h; higher = more G0 arrest; conditions: reference: sequence is the full UniProt precursor, the tested protein was the secreted form or ectodomain
MCF7 = assay: as above; conditions: reference: sequence is the full UniProt precursor, the tested protein was the secreted form or ectodomain
[1] = protein concentration 0.00875 µM
[2] = protein concentration 0.0875 µM
[3] = protein concentration 0.0183225 µM
[4] = protein concentration 0.183225 µM
[5] = protein concentration 0.00975 µM
[6] = protein concentration 0.0975 µM
[7] = protein concentration 0.03125 µM
[8] = protein concentration 0.3125 µM
[9] = protein concentration 0.0135 µM
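Further: secreted proteins added to cultured cells, EdU pulse at the end, nuclei found by Hoechst imaging, EdU status from nuclear versus surrounding ring intensity ratio, PBS as neutral control.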

Sequence: MVPAAGALLWVLLLNLGPRAAGAQGLTQTPTEMQRVSLRFGGPMTRSYRSTARTGLPRKTRIILEDENDAMADADRLAGPAAAELLAATVSTGFSRSSAINEEDGSSEEGVVINAGKDSTSRELPSATPNTAGSSSTRFIANSQEPEIRLTSSLPRSPGRSTEDLPGSQATLSQWSTPGSTPSRWPSPSPTAMPSPEDLRLVLMPWGPWHCHCKSGTMSRSRSGKLHGLSGRLRVGALSQLRTEHKPCTYQQCPCNRLREECPLDTSLCTDTNCASQSTTSTRTTTTPFPTIHLRSSPSLPPASPCPALAFWKRVRIGLEDIWNSLSSVFTEMQPIDRNQR [Q9BUN1]
- percentage of EdU-negative (hTERT-HMEC; [1]): 4.62 ± 0.76%
- percentage of EdU-negative (hTERT-HMEC; [2]): 10.6 ± 1.3%
- percentage of EdU-negative (MCF7; [1]): 25.2 ± 0.46%
- percentage of EdU-negative (MCF7; [2]): 26.9 ± 2.7%

Sequence: MKALIVLGLVLLSVTVQGKVFERCELARTLKRLGMDGYRGISLANWMCLAKWESGYNTRATNYNAGDRSTDYGIFQINSRYWCNDGKTPGAVNACHLSCSALLQDNIADAVACAKRVVRDPQGIRAWVAWRNRCQNRDVRQYVQGCGV
- percentage of EdU-negative (hTERT-HMEC; [3]): 5.192 ± 0.011%
- percentage of EdU-negative (hTERT-HMEC; [4]): 4.83 ± 0.071%
- percentage of EdU-negative (MCF7; [3]): 25.9 ± 0.84%
- percentage of EdU-negative (MCF7; [4]): 24.489 ± 0.011%

Sequence: MPGPRRPAGSRLRLLLLLLLPPLLLLLRGSHAGNLTVAVVLPLANTSYPWSWARVGPAVELALAQVKARPDLLPGWTVRTVLGSSENALGVCSDTAAPLAAVDLKWEHNPAVFLGPGCVYAAAPVGRFTAHWRVPLLTAGAPALGFGVKDEYALTTRAGPSYAKLGDFVAALHRRLGWERQALMLYAYRPGDEEHCFFLVEGLFMRVRDRLNITVDHLEFAEDDLSHYTRLLRTMPRKGRVIYICSSPDAFRTLMLLALEAGLCGEDYVFFHLDIFGQSLQGGQGPAPRRPWERGDGQDVSARQAFQAAKIITYKDPDNPEYLEFLKQLKHLAYEQFNFTMEDGLVNTIPASFHDGLLLYIQAVTETLAHGGTVTDGENITQRMWNRSFQGVTGYLKIDSSGDRETDFSLWDMDPENGAFRVVLNYNGTSQELVAVSGRKLNWPLGYPPPDIPKCGFDNEDPACNQDHLSTLEVLALVGSLSLLGILIVSFFIYRKMQLEKELASELWRVRWEDVEPSSLERHLRSAGSRLTLSGRGSNYGSLLTTEGQFQVFAKTAYYKGNLVAVKRVNRKRIELTRKVLFELKHMRDVQNEHLTRFVGACTDPPNICILTEYCPRGSLQDILENESITLDWMFRYSLTNDIVKGMLFLHNGAICSHGNLKSSNCVVDGRFVLKITDYGLESFRDLDPEQGHTVYAKKLWTAPELLRMASPPVRGSQAGDVYSFGIILQEIALRSGVFHVEGLDLSPKEIIERVTRGEQPPFRPSLALQSHLEELGLLMQRCWAEDPQERPPFQQIRLTLRKFNRENSSNILDNLLSRMEQYANNLEELVEERTQAYLEEKRKAEALLYQILPHSVAEQLKRGETVQAEAFDSVTIYFSDIVGFTALSAESTPMQVVTLLNDLYTCFDAVIDNFDVYKVETIGDAYMVVSGLPVRNGRLHACEVARMALALLDAVRSFRIRHRPQEQLRLRIGIHTGPVCAGVVGLKMPRYCLFGDTVNTASRMESNGEALKIHLSSETKAVLEEFGGFELELRGDVEMKGKGKVRTYWLLGERGSSTRG
- percentage of EdU-negative (hTERT-HMEC; [5]): 4.49 ± 0.51%
- percentage of EdU-negative (hTERT-HMEC; [6]): 7.62 ± 0.42%
- percentage of EdU-negative (MCF7; [5]): 23.4 ± 0.38%
- percentage of EdU-negative (MCF7; [6]): 29.51 ± 0.041%

Sequence: MDSDETGFEHSGLWVSVLAGLLLGACQAHPIPDSSPLLQFGGQVRQRYLYTDDAQQTEAHLEIREDGTVGGAADQSPESLLQLKALKPGVIQILGVKTSRFLCQRPDGALYGSLHFDPEACSFRELLLEDGYNVYQSEAHGLPLHLPGNKSPHRDPAPRGPARFLPLPGLPPALPEPPGILAPQPPDVGSSDPLSMVGPSQGRSPSYAS [Q9NSA1]
- percentage of EdU-negative (hTERT-HMEC; [7]): 4.59 ± 0.26%
- percentage of EdU-negative (hTERT-HMEC; [8]): 5.63 ± 0.48%
- percentage of EdU-negative (MCF7; [7]): 25 ± 1.2%
- percentage of EdU-negative (MCF7; [8]): 23.9 ± 1.2%

Sequence: MLLPKKMKLLLFLVSQMAILALFFHMYSHNISSLSMKAQPERMHVLVLSSWRSGSSFVGQLFGQHPDVFYLMEPAWHVWMTFKQSTAWMLHMAVRDLIRAVFLCDMSVFDAYMEPGPRRQSSLFQWENSRALCSAPACDIIPQDEIIPRAHCRLLCSQQPFEVVEKACRSYSHVVLKEVRFFNLQSLYPLLKDPSLNLHIVHLVRDPRAVFRSRERTKGDLMIDSRIVMGQHEQKLKKEDQPYYVMQVICQSQLEIYKTIQSLPKALQERYLLVRYEDLARAPVAQTSRMYEFVGLEFLPHLQTWVHNITRGKGMGDHAFHTNARDALNVSQAWRWSLPYEKVSRLQKACGDAMNLLGYRHVRSEQEQRNLLLDLLSTWTVPEQIH [Q8NCG5]
- percentage of EdU-negative (hTERT-HMEC; protein concentration 0.006 µM): 5.16 ± 0.29%
- percentage of EdU-negative (hTERT-HMEC; protein concentration 0.06 µM): 4.77 ± 0.11%
- percentage of EdU-negative (MCF7; protein concentration 0.006 µM): 26 ± 0.23%
- percentage of EdU-negative (MCF7; protein concentration 0.06 µM): 29.1 ± 1.1%

Sequence: MDLRQFLMCLSLCTAFALSKPTEKKDRVHHEPQLSDKVHNDAQSFDYDHDAFLGAEEAKTFDQLTPEESKERLGKIVSKIDGDKDGFVTVDELKDWIKFAQKRWIYEDVERQWKGHDLNEDGLVSWEEYKNATYGYVLDDPDPDDGFNYKQMMVRDERRFKMADKDGDLIATKEEFTAFLHPEEYDYMKDIVVQETMEDIDKNADGFIDLEEYIGDMYSHDGNTDEPEWVKTEREQFVEFRDKNRDGKMDKEETKDWILPSDYDHAEAEARHLVYESDQNKDGKLTKEEIVDKYDLFVGSQATDFGEALVRHDEF
- percentage of EdU-negative (hTERT-HMEC; [9]): 5.58 ± 1.3%
- percentage of EdU-negative (hTERT-HMEC; protein concentration 0.135 µM): 7.65 ± 0.27%
- percentage of EdU-negative (MCF7; [9]): 22.72 ± 0.078%
- percentage of EdU-negative (MCF7; protein concentration 0.135 µM): 23.6 ± 3.3%
